# Target: neuropeptide Y2 receptor (UniProt P49146)
# Test: [125I]-human PYY displacement, SK-N-BE membranes
# neuropeptide Y2 receptor, sequence (P49146 whole entry): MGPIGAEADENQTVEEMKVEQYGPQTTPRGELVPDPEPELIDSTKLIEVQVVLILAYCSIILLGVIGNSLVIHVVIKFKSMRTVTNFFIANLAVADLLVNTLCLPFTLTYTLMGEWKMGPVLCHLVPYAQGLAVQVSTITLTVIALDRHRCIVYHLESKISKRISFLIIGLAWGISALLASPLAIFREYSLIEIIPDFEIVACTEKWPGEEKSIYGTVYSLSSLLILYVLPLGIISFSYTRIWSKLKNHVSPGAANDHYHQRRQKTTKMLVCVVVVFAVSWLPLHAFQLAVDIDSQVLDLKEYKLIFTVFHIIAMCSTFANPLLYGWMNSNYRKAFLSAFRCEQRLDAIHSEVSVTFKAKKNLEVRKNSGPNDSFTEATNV
row,Substance,Receptor Binding
1,[Ac-alpha-MSH-bAla-bAla-PYY-(3-36); amide] (peptide),0.2
2,Human NPY (peptide),0.2
3,"[#Des-Lys1 Compound 10, amide] (Asp(#)-Pro-Pro-Pro-Pro-Pro-Pro-PYY (3-36), amide (peptide)",0.5
4,"[Asp(#)-miniPEG-Gly-PYY (3-36), amide] [#Cys-Gly-Gly-PYY (3-36), amide] (peptide)",0.8
5,"[#NH-Cys-(bAla)-PYY-(3-36), amide] [#Suc-(bAla)-PYY-(3-36), amide] (peptide)",1.2
6,"[#Cys-Gly-Gly-PYY (3-36), amide] [Asp(#)-Pro-Pro-Pro-Pro-Pro-Pro-PYY (3-36), amide] (peptide)",0.8
7,"[#Suc-(bAla)-PYY-(3-36), amide] [#NH-Des-Lys1-Rat Amylin, amide] (peptide)",0.39
8,"[#Cys-Gly-Gly-PYY (3-36), amide] [Asp(#)-miniPEG3-Gly-PYY (3-36), amide] (peptide)",0.8

# Target: calcitonin receptor
# Test: cell-based or functional assay
# calcitonin receptor, sequence (P30988 whole entry): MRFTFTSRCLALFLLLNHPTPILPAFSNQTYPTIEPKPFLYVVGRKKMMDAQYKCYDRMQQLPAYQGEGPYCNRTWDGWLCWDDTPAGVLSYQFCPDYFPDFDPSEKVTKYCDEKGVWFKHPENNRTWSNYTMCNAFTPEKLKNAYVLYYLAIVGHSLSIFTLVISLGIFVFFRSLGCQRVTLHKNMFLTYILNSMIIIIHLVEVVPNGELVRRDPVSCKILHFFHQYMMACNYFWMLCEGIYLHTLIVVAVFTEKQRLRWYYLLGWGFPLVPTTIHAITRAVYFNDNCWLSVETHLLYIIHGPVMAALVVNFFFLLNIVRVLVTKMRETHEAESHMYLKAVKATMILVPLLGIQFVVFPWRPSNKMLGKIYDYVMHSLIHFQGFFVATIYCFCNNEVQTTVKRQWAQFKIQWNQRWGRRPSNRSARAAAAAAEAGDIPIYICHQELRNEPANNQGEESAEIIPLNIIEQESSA
row,Substance,CT cyclase
1,"[#NH-Cys-(bAla)-PYY-(3-36), amide] [#Suc-(bAla)-PYY-(3-36), amide] (peptide; modification not given)",2270

# Target: calcitonin receptor
# Test: calcitonin receptor binding assay
row,Substance,Receptor Binding
1,"[#NH-Cys-(bAla)-PYY-(3-36), amide] [#Suc-(bAla)-PYY-(3-36), amide] (peptide; modification not given)",643

# Target: CGRP receptor (Homo sapiens (Human)) (UniProt Q16602)
# Test: 125I-hCGRP displacement, SK-N-MC membranes
row,Substance,Receptor Binding
1,"27(p-CH2SO3)-PheCCK8(26-33),G,K,R,15Glu,hAmy(1-17),18Arg,sCT(18-26),hAmy(32-37) (peptide)",4.4
2,Rat amylin (peptide),21

# — patent EP2330125A2
